T1: recombinant hVISTA ECD multimer (monobiotinylated hVISTA ECD on PE-streptavidin dextramers) (human, UniProt Q9H7M9 33-194, limits assumed, monobiotinylated)
T1 construct: Loaded at a 28:1 molar ratio onto PE-conjugated streptavidin dextramers; also called VISTA multimer; hVISTA-loaded dextramers
T1 sequence (looked up): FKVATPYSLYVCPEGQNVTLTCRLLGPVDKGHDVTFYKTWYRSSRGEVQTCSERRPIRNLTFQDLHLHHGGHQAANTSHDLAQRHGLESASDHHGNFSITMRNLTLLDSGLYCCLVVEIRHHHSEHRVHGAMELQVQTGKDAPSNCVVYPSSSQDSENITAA


Assays:
[1] = target: avidin (ThermoFisher Scientific catalog #21128) (UniProt P02701 25-152); experiment: SPR 25C, Ab on Protein A, pH 6.0 and 7.4
Chain of avidin (ThermoFisher Scientific catalog #21128) (P02701 25-152 limits assumed): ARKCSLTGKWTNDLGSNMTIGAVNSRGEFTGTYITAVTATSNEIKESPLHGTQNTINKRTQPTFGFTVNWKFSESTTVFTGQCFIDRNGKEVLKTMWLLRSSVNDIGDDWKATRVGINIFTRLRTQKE
Method: (§1) Protein A (ThermoFisher Scientific catalog #21181) was diluted to 20 ug/ml in 10 mM sodium acetate pH 4.5 and immobilized onto flow cells of a CM3 biosensor following the manufacturer's amine coupling protocol (GE Healthcare), targeting 800 RU immobilization density of Protein A per flow cell. SPR experiments were conducted at 25° C. using PBST (137 mM sodium chloride, 2.7 mM potassium chloride, 10 mM phosphate buffer, 0.05% Tween 20) running buffer at pH 7.4 and 6.0. Antibodies (formatted as IgG1.3 antibodies) were diluted to 50 nM in PBST pH 7.4, and were captured across active biosensor flow cells at 5 ul/min for 60 seconds. […] Two 15 second injections of 10 mM glycine pH 1.5 were used to regenerate the Protein A capture surface between assay cycles. Reference flow cell and 0 nM blank-subtracted sensorgrams were inspected using Biacore® T200 Evaluation Software v.2.0.

[2] = target: BSA (Calbiochem catalog #126593) (UniProt P02769 25-607); experiment: SPR 25C, Ab on Protein A, pH 6.0 and 7.4
Chain of BSA (Calbiochem catalog #126593) (P02769 25-607 limits assumed): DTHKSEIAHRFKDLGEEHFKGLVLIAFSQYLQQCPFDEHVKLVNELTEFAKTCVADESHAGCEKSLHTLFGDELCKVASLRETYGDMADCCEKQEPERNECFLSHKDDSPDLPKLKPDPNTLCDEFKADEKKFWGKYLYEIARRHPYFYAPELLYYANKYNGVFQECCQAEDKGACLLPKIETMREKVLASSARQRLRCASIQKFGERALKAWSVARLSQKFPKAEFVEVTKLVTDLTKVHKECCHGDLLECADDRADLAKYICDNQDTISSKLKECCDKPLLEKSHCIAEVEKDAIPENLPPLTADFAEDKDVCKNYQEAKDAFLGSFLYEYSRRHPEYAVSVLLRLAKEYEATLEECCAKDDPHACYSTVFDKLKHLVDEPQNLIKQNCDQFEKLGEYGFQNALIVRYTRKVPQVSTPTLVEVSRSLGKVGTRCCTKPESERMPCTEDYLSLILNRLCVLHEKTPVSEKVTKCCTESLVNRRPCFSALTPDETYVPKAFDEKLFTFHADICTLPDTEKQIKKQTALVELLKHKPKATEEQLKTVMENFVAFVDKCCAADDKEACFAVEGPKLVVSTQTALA
Method: as §1

[3] = target: T1, recombinant hVISTA ECD multimer …; experiment: flow cytometry, blocking of VISTA multimer binding to activated human CD4+ T cells, pH 6.0
Method: As a control, activated CD4+ T cells were stained with PE-conjugated streptavidin dextramers that were not loaded with hVISTA. The stained cells were washed with HBSS+ MES and acquired on a flow cytometer. Data were analyzed using FlowJo™ software (BD Biosciences). […] Left, from darker gray to lighter, the filled histograms depict binding at pH 7.0, 6.5, 6.4, 6.3, 6.1, and 6.0. Some histograms are labeled with their corresponding pH. Non-VISTA control multimer binding at pH 6.0 is shown as the unfilled histogram. Right, graphed PE mean fluorescence intensities (MFI) of CD4+ T cells stained with hVISTA-loaded dextramers (blue circles) or with non-loaded dextramers (triangles) at various pH.
This blocking assay was performed as described in Example 4.

IC50 (read off the curve) [3] [ng/mL] | Binder | binding result [1] | binding result [2]
~40 | P1-061029.IgG1.3 (antibody, IgG1.3; also called parent; hIgG1.3f) heavy: EVQLVESGGGLVQPGKSLRLSCAASGFTLDDYAMHWVRQAPGKGLEWVSGINWNSANIGYADSVKGRFTISRDNAKNSLYLQMNSLRTEDTALYYCAKVPGYSGGWIDAFDVWGQGTMVTVSSASTKGPSVFPLAPSSKSTSGGTAALGCLVKDYFPEPVTVSWNSGALTSGVHTFPAVLQSSGLYSLSSVVTVPSSSLGTQTYICNVNHKPSNTKVDKRVEPKSCDKTHTCPPCPAPEAEGAPSVFLFPPKPKDTLMISRTPEVTCVVVDVSHEDPEVKFNWYVDGVEVHNAKTKPREEQYNSTYRVVSVLTVLHQDWLNGKEYKCKVSNKALPAPIEKTISKAKGQPREPQVYTLPPSREEMTKNQVSLTCLVKGFYPSDIAVEWESNGQPENNYKTTPPVLDSDGSFFLYSKLTVDKSRWQQGNVFSCSVMHEALHNHYTQKSLSLSPG light: not shown | no binding (tested: 100-10 nM; binding defined as >10 RU) | no binding (tested: 100-10 nM; binding defined as >10 RU)
– | P1-068767.IgG1.3 (antibody, V domains shown, IgG1.3; also called hIgG1.3f; printed once as P1-068768) VH: EVQLVESGGGLVQPGKSLRLSCAASGFTLEDYAMHWVRQAPGKGLEWVSGIDWNSENIGYADSVKGRFTISRDNAKNSLYLQMNSLRTEDTALYYCAKVPGYSGGWIDAEDDWGQGTMVTVSS VL: not shown | no binding (tested: 100-10 nM; binding defined as >10 RU) | no binding (tested: 100-10 nM; binding defined as >10 RU)
– | P1-068761.IgG1.3 (antibody, IgG1.3; also called hIgG1.3f) heavy: EVQLVESGGGLVQPGKSLRLSCAASGFTLEDEAMHWVRQAPGKGLEWVSGINWNSEEIGYADSVKGRFTISRDNAKNSLYLQMNSLRTEDTALYYCAKVPGYSHGWIDAEDVWGQGTMVTVSSASTKGPSVFPLAPSSKSTSGGTAALGCLVKDYFPEPVTVSWNSGALTSGVHTFPAVLQSSGLYSLSSVVTVPSSSLGTQTYICNVNHKPSNTKVDKRVEPKSCDKTHTCPPCPAPEAEGAPSVFLFPPKPKDTLMISRTPEVTCVVVDVSHEDPEVKFNWYVDGVEVHNAKTKPREEQYNSTYRVVSVLTVLHQDWLNGKEYKCKVSNKALPAPIEKTISKAKGQPREPQVYTLPPSREEMTKNQVSLTCLVKGFYPSDIAVEWESNGQPENNYKTTPPVLDSDGSFFLYSKLTVDKSRWQQGNVFSCSVMHEALHNHYTQKSLSLSPG light: not shown | no binding (tested: 100-10 nM; binding defined as >10 RU) | no binding (tested: 100-10 nM; binding defined as >10 RU)
